Results: publication PMC9348789 (2022)

B1: CXCL11 (ligand)
chain: FPMFKRGRCLCIGPGVKAVKVADIEKASIMYPSNNCDKIEVIITLKENKGQRCLNPKSKQARLIIKKVERKNF
B2: CCL5 (ligand)
chain: SPYSSDTTPCCFAYIARPLPRAHIKEYFYTSGKCSNPAVVFVTRKNRQVCANPEKKWVREYINSLEMS
B3: CXCL4 (ligand)
chain: EAEEDGDLQCLCVKTTSQVRPRHITSLEVIKAGPHCPTAQLIATLKNGRKICLDLQAPLYKKIIKKLLES
B4: CCL28 (ligand)
chain: SEAILPIASSCCTEVSHHISRRLLERVNMCRIQRADGDCDLAAVILHVKRRRICVSPHNHTVKQWMKVQAAKKNGKGNVCHRKKHHGKRNSNRAHQGKHETYGHKTPY
B5: CCL11 (ligand)
chain: not shown
B6: CXCL9 (ligand)
chain: TPVVRKGRCSCISTNQGTIHLQSLKDLKQFAPSPSCEKIEIIATLKNGVQTCLNPDSADVKELIKKWEKQVSQKKKQKNGKKHQKKKVLKVRKSQRSRQKKTT
B7: CCL26 (ligand)
chain: TRGSDISKTCCFQYSHKPLPWTWVRSYEFTSNSCSQRAVIFTTKRGKKVCTHPRKKWVQKYISLLKTPKQL
B8: CXCL14 (ligand)
chain: SKCKCSRKGPKIRYSDVKKLEMKPKYPHCEEKMVIITTKSVSRYRGQEHCLHPKLQSTKRFIKWYNAWNEKRRVYEE
B9: CCL21 (ligand)
chain: SDGGAQDCCLKYSQRKIPAKVVRSYRKQEPSLGCSIPAILFLPRKRSQAELCADPKELWVQQLMQHLDKTPSPQKPAQGCRKDRGASKTGKKGKGSKGCKRTERSQTPKGP

What was measured:
[1] = biological target: T1, SARS-CoV-2 nucleocapsid protein (N) (SARS-CoV-2, UniProt P0DTC9 1-419); experiment: BLI
[2] = biological target: T1, SARS-CoV-2 nucleocapsid protein (N); experiment: BLI; remark: listed apart in the source

Binder | Kd [1] | koff [2]
B1 | 130 nM | 0.0033 s⁻¹
B2 | 10 nM | 0.00019 s⁻¹
B3 | 170 nM | 0.00053 s⁻¹
B4 | 22 nM | 0.00087 s⁻¹
B5 | 72 nM | 0.0045 s⁻¹
B6 | 12 nM | 0.00085 s⁻¹
B7 | 26 nM | 0.00093 s⁻¹
B8 | 45 nM | 0.0019 s⁻¹
B9 | 14 nM | 0.0014 s⁻¹
